Consider three proteins from patent US7176008.

The data set addresses T1, Biotinyl-EACA-EACA-Gly-Leu-Met-Val-Gly-Gly-Val-Val-Arg-OH.
T1 chain: GLMVGGVVR

B1: human soluble carboxypeptidase M (protein)
chain: LDFNYHRQEGMEAFLKTVAQNYSSVTHLHSIGKSVKGRNLWVLVVGRFPKEHRIGIPEFKYVANMHGDETVGRELLLHLIDYLVTSDGKDPEITNLINSTRIHIMPSMNPDGFEAVKKPDCYYSIGRENYNQYDLNRNFPDAFEYNNVSRQPETVAVMKWLKTETFVLSANLHGGALVASYPFDNGVQATGALYSRSLTPDDDVFQYLAHTYASRNPNMKKGDECKNKMNFPNGVTNGYSWYPLQGGMQDYNYIWAQCFEITLELSCCKYPREEKLPSFWNNNKASLIEYIKQVHLGVKGQVFDQNGNPLPNVIVEVQDRKHICPYRTNKYGEYYLLLLPGSYIINVTVPGHDPHITKVIIPEKSQNFSALKKDILLPFQGQLDSIPVSNPSCPMIPLYRNLPDHS
Turning to B1, the “Km (37° C.)” value was “the value was much higher (>50 µM) at 37 °C” and the “Km (room temperature)” value is listed as “Km for CPM was 38 µM at room temperature”.

B2: activated thrombin-activatable fibrinolysis inhibitor (human TAFIa) (protein)
chain: ASASYYEQYHSLNEIYSWIEFITERHPDMLTKIHIGSSFEKYPLYVLKVSGKEQAAKNAIWIDCGIHAREWISPAFCLWFIGHITQFYGIIGQYTNLLRLVDFYVMPVVNVDGYDYSWKKNRMWRKNRSFYANNHCIGTDLNRNFASKHWCEEGASSSSCSETYCGLYPESEPEVKAVASFLRRNINQIKAYISMHSYSQHIVFPYSYTRSKSKDHEELSLVASEAVRAIEKISKNTRYTHGHGSETLYLAPGGGDDWIYDLGIKYSFTIELRDTGTYGFLLPERYIKPTCREAFAAVSKIAWHVIRNV
With B2, the Km result is “Values of Km for TAFIa and CPB were 8 and 12 µM, respectively”.

B3: human carboxypeptidase B (protein)
chain: ATGHSYEKYNKWETIEAWTQQVATENPALISRSVIGTTFEGRAIYLLKVGKAGQNKPAIFMDCGFHAREWISPAFCQWFVREAVRTYGREIQVTELLDKLDFYVLPVLNIDGYIYTWTKSRFWRKTRSTHTGSSCIGTDPNRNFDAGWCEIGASRNPCDETYCGPAAESEKETKALADFIRNKLSSIKAYLTIHSYSQMMIYPYSYAYKLGENNAELNALAKATVKELASLHGTKYTYGPGATTIYPAAGGSDDWAYDQGIRYSFTFELRDTGRYGFLLPESQIRATCEETFLAIKYVASYVLEHLY
For the protein B3, the Km result is “Values of Km for TAFIa and CPB were 8 and 12 µM, respectively”.
